The text below walks through data of publication PMC4949953.

In the assay the target is computationally redesigned, water-soluble variant of the human μ-opioid receptor (MOR) (human) (UniProt P35372). Kind of assay: MoS2 field effect transistor biosensor.

As for “[D-Ala^2, N-MePhe^4, Gly-ol]-enkephalin (peptide)”, the dissociation constant Kd came out at 87 nM.
